Experimental data published in US20160200831A1 (Sanofi, published 2016).
Where a chain is given by its changes, count along the chain named. One block for each binder: values may come before it.

Key:
[1] = biological target: T1, cynomolgus PAI-1 (cynomolgus monkey (Macaca fascicularis), UniProt P05121 24-402 (human entry)); assay: Biacore, mAb on anti-human IgG Fc chip / cyno PAI-1, 1:1 model
T1 construct: produced in-house in E. coli (non-glycosylated); active cyno PAI-1 in the assays; also called cyno PAI-1; cPAI-1
T1 sequence (P05121 other isoform, or with tags, fused parts or gaps limits assumed): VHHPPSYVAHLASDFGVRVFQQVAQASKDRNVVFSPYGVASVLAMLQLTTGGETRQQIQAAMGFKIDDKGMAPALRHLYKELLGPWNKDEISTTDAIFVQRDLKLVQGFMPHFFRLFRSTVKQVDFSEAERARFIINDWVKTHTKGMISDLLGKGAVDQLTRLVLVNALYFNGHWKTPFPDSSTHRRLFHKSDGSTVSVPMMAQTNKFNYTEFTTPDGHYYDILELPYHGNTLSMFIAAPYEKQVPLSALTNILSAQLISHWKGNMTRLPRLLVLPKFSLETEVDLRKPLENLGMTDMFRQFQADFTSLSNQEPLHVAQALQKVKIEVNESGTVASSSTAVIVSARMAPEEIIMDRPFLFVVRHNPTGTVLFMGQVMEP

[2] = biological target: T2, cyno PAI-1 captured on immobilized human vitronectin (cynomolgus monkey; human, UniProt P04004 20-478, limits assumed); assay: Biacore, cPAI-1 on vitronectin chip, 1:1 model
T2 construct: non-covalent complex formed on the chip; also called cPAI-1/Vn
T2 sequence (chain, as listed by the source limits assumed, chain 1 of 2): as the sequence (P05121 other isoform, or with tags, fused parts or gaps limits assumed) above
T2 sequence (P04004 20-478 limits assumed, chain 2 of 2): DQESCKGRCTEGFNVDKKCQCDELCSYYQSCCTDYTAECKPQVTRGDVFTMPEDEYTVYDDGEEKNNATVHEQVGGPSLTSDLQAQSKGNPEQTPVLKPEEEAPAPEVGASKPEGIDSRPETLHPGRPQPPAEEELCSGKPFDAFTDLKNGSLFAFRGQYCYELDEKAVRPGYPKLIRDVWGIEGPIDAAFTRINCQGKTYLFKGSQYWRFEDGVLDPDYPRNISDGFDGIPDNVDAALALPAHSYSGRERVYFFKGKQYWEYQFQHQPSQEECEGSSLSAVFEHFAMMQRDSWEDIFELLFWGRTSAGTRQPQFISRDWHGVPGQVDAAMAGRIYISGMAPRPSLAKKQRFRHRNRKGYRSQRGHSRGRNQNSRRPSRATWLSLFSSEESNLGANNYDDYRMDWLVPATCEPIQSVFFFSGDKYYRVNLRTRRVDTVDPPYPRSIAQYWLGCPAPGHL

[3] = biological target: T3, human PAI-1 captured on immobilized human vitronectin (human, UniProt P04004 20-478); assay: Biacore, hPAI-1 on vitronectin chip, 1:1 model
T3 construct: non-covalent complex formed on the chip or plate; also called PAI-1/Vn complex; Vn captured hPAI-1
T3 sequence (chain, as listed by the source limits assumed, chain 1 of 2): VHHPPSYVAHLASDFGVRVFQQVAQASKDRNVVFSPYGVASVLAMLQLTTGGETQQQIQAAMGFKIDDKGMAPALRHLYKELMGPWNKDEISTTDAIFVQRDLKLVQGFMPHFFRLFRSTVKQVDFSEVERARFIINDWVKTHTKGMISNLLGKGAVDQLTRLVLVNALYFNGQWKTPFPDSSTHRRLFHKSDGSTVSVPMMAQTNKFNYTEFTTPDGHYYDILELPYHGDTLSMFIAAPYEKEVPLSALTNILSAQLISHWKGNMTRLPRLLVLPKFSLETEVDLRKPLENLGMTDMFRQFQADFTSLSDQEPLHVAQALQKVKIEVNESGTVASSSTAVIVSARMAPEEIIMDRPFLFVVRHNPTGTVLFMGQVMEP
T3 sequence (P04004 20-478 limits assumed, chain 2 of 2): as the sequence (P04004 20-478 limits assumed, chain 2 of 2) above

[4] = biological target: T4, human PAI-1 (human, UniProt P05121 24-402); assay: Biacore, mAb on anti-human IgG Fc chip, 1:1 model
T4 construct: also used for endogenous PAI-1 of human plasma, liver lysate and lung fibroblasts; also called hPAI-1; hPAI

[5] = biological target: T4, human PAI-1; assay: cell-based or functional assay
[6] = biological target: T1, cynomolgus PAI-1; assay: cell-based or functional assay
[7] = biological target: T5, glycosylated human PAI-1 (active form) (human, UniProt P05121 24-402, glycosylated); assay: cell-based or functional assay
[8] = biological target: T4, human PAI-1; assay: cell-based or functional assay; remark: listed apart in the source
[9] = biological target: T5, glycosylated human PAI-1 (active form); assay: cell-based or functional assay; remark: listed apart in the source
[10] = biological target: T4, human PAI-1; assay: Biacore, hybridoma supernatant
[11] = biological target: T5, glycosylated human PAI-1 (active form); assay: cell-based or functional assay; remark: listed apart in the source
[12] = biological target: T4, human PAI-1; assay: cell-based or functional assay; remark: listed apart in the source
[13] = biological target: T5, glycosylated human PAI-1 (active form); assay: SPR Biacore 2000, mAb captured by anti-Fc, single-cycle kinetics, 1:1 model
Protocol: First, the surface of a Sensor Chip CM5 (GE Healthcare, Uppsala, Sweden) was prepared using routine amine coupling for the capture of the mouse and human anti-Fc (Anti-human IgG (Fc) antibody & Anti-mouse IgG antibody kits, GE Healthcare). All monoclonal antibodies (mAbs) were diluted to 5 nM using HBS-EP running buffer. Each purified mAb was captured for three minutes on a different flow cell surface. Human PAI-1 was injected at various concentrations (2.5, 5, 10, 20 and 40 nM) with short dissociation times in between and a long dissociation time at the end (contact time: 120 seconds, short dissociation: 90 seconds; long dissociation: 1800 seconds, flow rate: 50 μl/min). The chip was regenerated by glycine-HCl, pH 1.7 buffer after each round of antibody-PAI-1 binding. Kinetics data analysis was performed using Biacore BIAevaluation software. The sensorgrams were double-referenced by subtracting the reference flow cell values and the blank buffer values. The sensorgrams were fitted by using the simulated kinetics 1:1 (Langmuir) model with local Rmax. (see FIG. 19).

[14] = biological target: T5, glycosylated human PAI-1 (active form); assay: cell-based or functional assay; remark: listed apart in the source

B1: A44-hv14 (antibody, V domains shown)
VH: QMQLQESGPGLVKPSETLSLTCTVSGDSMTNGYWNWIRQPPGKGLEYMGYITYSGSTYYNPSLKSRITISRDTSKNQYSLKLSSVTAADTAVYYCARWHYGSPYYFDYWGQGTLVTVSS
VL: DIKMTQSPSSLSASVGDRVTITCKASQDINSYLSWLQQKPGKSPKTLIYRAQRSVEGVPSRFSGSGSGQDYSLTISSLQPEDLATYYCLQYDEFPPTFGGGTKLEIK
notes: humanized A44, HEK293; constant regions as for A44-hv1; also called LC4 x HC5b; variant 14
Kd [1]: 11.5 pM
koff [1]: 2.69e-05 s⁻¹
kon [1]: 2.32e+06 M⁻¹ s⁻¹
Kd [2]: 38.6 pM
koff [2]: 0.000213 s⁻¹
kon [2]: 5.86e+06 M⁻¹ s⁻¹
Kd [3]: 9.57 pM
koff [3]: 3.95e-05 s⁻¹
kon [3]: 4.06e+06 M⁻¹ s⁻¹
Kd [4]: 27 pM
koff [4]: 3.42e-05 s⁻¹
kon [4]: 1.25e+06 M⁻¹ s⁻¹
active PAI-1 by uPA-PAI-1 complex ELISA, hPAI-1 Standard, IC50 [5]: 56.3 pM
active PAI-1 by uPA-PAI-1 complex ELISA, hPAI-1 Standard, Y50% [5]: 52.5%
active PAI-1 by uPA-PAI-1 complex ELISA, hPlasma TH1782, IC50 [5]: 58.6 pM
active PAI-1 by uPA-PAI-1 complex ELISA, hPlasma TH1782, Y50% [5]: 73.9%
active PAI-1 by uPA-PAI-1 complex ELISA, Cyno PAI-1, IC50 [6]: 28.7 pM
active PAI-1 by uPA-PAI-1 complex ELISA, Cyno PAI-1, Y50% [6]: 52.5%
Plasminogen Activation IC50 [7]: 1820 pM
Plasminogen Activation Y50% [7]: 61.2%

B2: E16 (antibody, mouse IgG1, V domains shown)
VH: EVKLVESGGGLVKPGGSLKLSCAASGFTFSNYGMSWVRQTPEKGLGWVASLRTGGNTYYSDSVKGRFTISRDNDRNILYLQMSSLTSEDTAVYYCARGLRHWGYFDVWGAGTTVTVSS
VL: DIVMTQSHKFMSTSVGDRVNITCKASQDVSTAVGWYQQEPGQSPKLLIYSASNRHTGVPDRFTGSGSGTDFTFTISSVQAEDLAVYYCQQHYSSPWTFGGGTKLEIK
notes: mouse IgG1; also called mE16; E16 (IgG1)
EC50, % neutralization of hPAI-1 (chromogenic assay) [8]: 1240 pM
plasmin generation, hepatic stellate cells, IC50abs [9]: 4740 pM
plasmin generation, hepatic stellate cells, Imax [9]: 95%
koff [10]: ≤ 0.0001 s⁻¹
Chromogenic Assays [11]: 1.1 nM
Plasmin Generation [11]: 4.74 nM

B5: A44-hv12 (antibody, V domains shown)
VH: QMTLKESGPTLVKPTQTLSLTCSVSGDSMTNGYWNWIRQFPGKALEYMGYITYSGSTYYNPSLKGRITITRDTSKNQYYLTLSSVTTVDTATYYCARWHYGSPYYFDYWGQGTTLTVSS
VL: B1 VL
notes: humanized A44, HEK293; constant regions as for A44-hv1; also called LC4 x HC3; variant 12
Kd [1]: 24.4 pM
koff [1]: 5.45e-05 s⁻¹
kon [1]: 2.24e+06 M⁻¹ s⁻¹
Kd [2]: 56.9 pM
koff [2]: 0.000235 s⁻¹
kon [2]: 4.26e+06 M⁻¹ s⁻¹
Kd [3]: 16.1 pM
koff [3]: 8.14e-05 s⁻¹
kon [3]: 5.15e+06 M⁻¹ s⁻¹
Kd [4]: 41.4 pM
koff [4]: 6.7e-05 s⁻¹
kon [4]: 1.62e+06 M⁻¹ s⁻¹
active PAI-1 by uPA-PAI-1 complex ELISA, hPAI-1 Standard, IC50 [5]: 114 pM
active PAI-1 by uPA-PAI-1 complex ELISA, hPAI-1 Standard, Y50% [5]: 53.5%
active PAI-1 by uPA-PAI-1 complex ELISA, hPlasma TH1782, IC50 [5]: 3.35 pM
active PAI-1 by uPA-PAI-1 complex ELISA, hPlasma TH1782, Y50% [5]: 37.7%
active PAI-1 by uPA-PAI-1 complex ELISA, Cyno PAI-1, IC50 [6]: 26.6 pM
active PAI-1 by uPA-PAI-1 complex ELISA, Cyno PAI-1, Y50% [6]: 53.5%
Plasminogen Activation IC50 [7]: 1990 pM
Plasminogen Activation Y50% [7]: 76.7%

More lines, now with the values ahead:

plasmin generation, hepatic stellate cells, IC50abs [9]: 6500 pM
plasmin generation, hepatic stellate cells, Imax [9]: 97%
koff [10]: ≤ 0.0001 s⁻¹
Chromogenic Assays [11]: 0.5 nM
Plasmin Generation [11]: 10.6 nM
B3: C45 (antibody, mouse IgG2b, V domains shown)
VH: QVQLQQSGVELVRPGTSVKVSCKASGYAFTNYLIEWIKQRPGQGLEWIGVIHPGSGVTNYNEKFKGKAILTADKSSSTAYMQLSSLTSDDSAVYFCARDYYGSSHGLMDYWGQGTSVTVSS
VL: DIKMTQSPSSMYASLGERVTITCKASQDINSYLSWFQQKPGKSPKTLIYRANRLVDGVPSRFSGSGSGQDYSLTISSLEYEDMGIYYCLQYDEFPRTFGGGTKLEIK
notes: mouse IgG2b; also called mC45; C45 (IgG2b)

PAI-1 activity in human plasma (uPA-PAI-1 complex ELISA), IC50abs [12]: 1810 pM
PAI-1 activity in human plasma (uPA-PAI-1 complex ELISA), Imax [12]: 89.7%
Kd [13]: 113 pM
koff [13]: 0.000432 s⁻¹
human plasma clot lysis, IC50 [14]: 2340 pM
human plasma clot lysis, Imax @ 100 nM [14]: 123%
B4: APG (antibody, V domains shown)
VH: QVKLQESGPELVKPGASVKISCKASGYSFTDYNMNWVKQSKGKSLEWIGIIHPNSGTTTYNQKFKGKATLTVDQSSSTAYLQLNSLTSEDSAVYYCARSKLRFFDYWGQGTTVTVSS
VL: B3 VL with M4L, N30Y, V55I, D82H, R96F, G100S
notes: murine anti-PAI-1 antibody of DE2000153251; also called mAPG; mouse APG
